# Results from paper doi:10.1101/2023.11.22.568361 (bioRxiv, 2023).
# Target: the molecule itself
# Assay: AUC
protein,measurement,value
MAGNGGDAALALLLLDRLNQLESKMSGKGQQQQGQTV [isolated LRS peptide (N:210–246)],binding result,binds
